From the Human Domainome abundance scans (Beltran et al. 2025)

B1: POU domain, class 2, transcription factor 1, residues 285 to 354; numbered along this chain, P14859 (parent)
chain: LEELEQFAKTFKQRRIKLGFTQGDVGLAMGKLYGNDFSQTTISRFEALNLSFKNMCKLKPLLEKWLNDAE

Variants of: B1
Assay: abundance fitness (aPCA) (normalised: wild type 0, dead -1); higher = more abundant; growth selection in yeast, the domain comes from the species named
Conditions: Homo sapiens

Abundance fitness: each site, then its substitutions
Q22: W -0.072 | H -0.118 | K 0.048 | I -0.076 | Y -0.029 | C 0.031 | E -0.024 | M -0.134 | G -0.099 | L -0.001 | A -0.014 | R -0.011 | T -0.011 | N -0.119 | S -0.005 | V 0 | D -0.035 | P 0.001 | F -0.129
G30: C 0 | F 0.014 | R 0.01 | M -0.024 | L -0.015 | S -0.019 | T -0.028 | I 0.012 | D -0.087 | Q 0.102 | W 0.006 | E -0.025 | K -0.034 | Y 0.002 | H -0.068 | N -0.113 | P -0.209 | A 0.014
V25: A -0.049 | F -0.372 | D -0.504 | W -0.645 | I -0.094 | G -0.711 | P -0.687 | S -0.843 | L -0.349
L18: C -0.1 | W -0.237 | R -0.143 | A -0.046 | M -0.067 | D -0.601 | I -0.261 | T -0.386 | N -0.408 | G -0.312 | P -0.955 | V -0.192 | E -0.326 | H -0.277 | S -0.094 | Y -0.041
A28: N -0.061 | T -0.01 | E -0.508 | V -0.052 | M -0.043 | P -0.56 | D -0.079 | S -0.042 | H -0.059 | Q 0.048 | L -0.04 | I -0.054 | K -0.008 | F -0.11
L32: K 0.031 | D -0.078 | R -0.031 | V -0.226 | A -0.006 | S -0.154 | T 0.005 | F -0.193 | G -0.107 | E -0.005 | Q -0.012 | N -0.054 | H -0.004
I16: G -0.207 | R -0.169 | E 0.073 | D -0.2 | A -0.039 | L -0.007 | S -0.018 | K -0.021 | P -1.07 | C -0.325 | N -0.105 | F -0.131 | M 0.004 | T -0.03 | V -0.017 | W -0.269 | Y -0.117
R15: W -0.953 | N -0.902 | E -0.971 | A -0.835 | F -0.533 | V -0.815 | K -1.09 | C -0.655 | S -0.974 | I -1.1 | L -0.826 | Y -0.387 | T -1.03 | H -0.725 | G -1.03 | P -1.09
N35: D 0.035 | A -0.011 | E 0.025
G19: D -0.314 | M -0.471 | H -0.564 | S -0.288 | V -0.214 | A -0.391
F20: W 0.004 | H -0.045 | Y 0.06 | P -0.827 | T -0.253 | K -0.073 | R -0.092 | S -0.197 | V -0.024 | A -0.035 | L -0.081 | D -0.706 | Q -0.038 | N -0.197 | C -0.016 | E -0.372
K31: N -0.217 | G -0.066 | L -0.166 | C -0.12 | D -0.029 | R 0.018 | Q -0.034 | P -0.115 | S -0.068 | I -0.495 | Y -0.069 | E 0.058 | H 0.003 | A -0.027 | V -0.126 | F -0.126 | M -0.256 | W -0.323
M29: I -0.006 | E -0.808 | H -0.689 | P -0.903 | Y -0.512 | C -0.092 | R -0.998 | Q -0.497 | D -0.727 | F -0.148 | A -0.145 | V 0.031 | G -0.377 | W -0.625 | S -0.49 | K -0.748 | L -0.016
G26: C -0.043 | Q -0.014 | P -0.276 | K -0.095 | I -0.076 | E -0.025 | L -0.054 | Y -0.043 | T -0.038 | M -0.04 | A -0.027 | R -0.087 | W -0.051 | S 0.025 | F -0.082 | N -0.033 | V -0.005 | H -0.098 | D -0.052
K17: R -0.166 | I -0.1 | S -0.003 | C -0.046 | G -0.027 | Y -0.07 | P -0.966 | M -0.007 | L -0.016 | N 0.076 | V -0.06 | Q -0.023 | D 0.001 | W -0.037 | E 0.01 | T -0.029
Y33: I -0.019 | A -0.045 | K -0.053 | Q -0.067 | C -0.04 | D -0.125 | G -0.097 | L -0.008 | V -0.151 | E -0.047 | S -0.039 | T -0.061 | F -0.031 | M -0.11 | W -0.122 | H 0.031 | P -0.104 | N -0.075 | R -0.103
D24: K -0.124 | P -0.846 | W -0.238 | E -0.008 | V -0.218 | L -0.192 | G -0.091 | A -0.058 | S -0.097 | M -0.11 | T -0.089 | Y -0.164 | R -0.151 | H -0.06
G34: P 0 | I -0.189 | E -0.01 | T -0.16 | N -0.041 | C -0.023 | A -0.027 | L -0.151 | V -0.164 | W -0.301 | R -0.027 | K -0.039 | D -0.036 | Y -0.165 | S -0.1 | F -0.276 | H -0.097
L27: H 0.049 | W -0.106 | A 0.073 | M 0 | E -0.002 | D -0.136 | K -0.052 | P -0.31 | Q 0.003 | Y -0.113 | R 0.016 | T -0.053 | N -0.13 | V 0.003 | I -0.005 | F 0.01 | C 0.039
G23: Q -0.023 | C -0.073 | E 0.017 | V 0.113 | P -0.11 | T -0.004 | W -0.069 | D 0.023 | H 0.013 | S -0.021 | Y -0.028 | M -0.023 | R -0.071 | N 0.013 | L -0.009 | A 0.025 | K 0.065
T21: G -0.113 | Q -0.131 | P -0.423 | W -0.753 | I -0.598 | K -0.065 | L -0.284 | R -0.198 | N -0.029 | A -0.158 | H -0.191 | D -0.191 | V -0.482 | F -0.693 | E -0.191
Q13: Y 0.011
R14: N -0.29 | H -0.156 | A -0.048 | E 0.028 | L -0.105 | P -1.05 | F -0.32 | M -0.089 | T -0.024 | S -0.052 | W -0.296 | Q -0.1 | K 0.004 | C -0.233 | Y -0.384 | V -0.004 | G -0.067
